Assay results published in patent US20260072038A1.
pKd: −log10 of the molar value.

Tests used:
[1] = molecular target: huCD64/human FcRI (R&D Systems 1257FC) (human) (UniProt P12314); assay: SPR (Biacore), antibody captured on Protein A CM5 chip, CD64 as analyte
[2] = molecular target: Human TNFa (recombinant) (human) (UniProt P01375); assay: SPR (Biacore), antibody captured on Protein A CM5 chip, TNFa as analyte
[3] = molecular target: Human TNFa (recombinant) (human) (UniProt P01375); assay: SPR (Biacore), average of three BYL batches, TNFa as analyte
[4] = molecular target: huCD64/human FcRI (R&D Systems 1257FC) (human) (UniProt P12314); assay: SPR (Biacore), average of three BYL batches, CD64 as analyte

| Substance | pKd [1] | pKd [2] | koff [2] [s⁻¹] | kon [2] [M⁻¹ s⁻¹] | koff [1] [s⁻¹] | kon [1] [M⁻¹ s⁻¹] | pKd [3] | pKd [4] |
| --- | --- | --- | --- | --- | --- | --- | --- | --- |
| Humira CF CHJ (adalimumab produced in BYL/ALiCE, batch CHJ) (antibody) | 9.46 | – | – | – | – | – | – | – |
| Reference IgG Adalinumab (Humira) (ABIN5668145), commercial adalimumab reference product expressed from CHO cells (antibody) | 9.80 | 9.73 | 8.37e-05 | 453000 | 0.000152 | 959000 | – | – |
| Humira CF DAK (adalimumab produced in BYL/ALiCE, batch DAK) (antibody) | 9.46 | – | – | – | – | – | – | – |
| BYL-mAb (adalimumab produced in BYL, average of the three batches) (antibody) | – | – | – | – | – | – | 9.87 | 9.45 |
| Humira CF DB3 (adalimumab produced in BYL/ALiCE, batch DB3) (antibody) | 9.44 | 9.91 | 5.83e-05 | 478000 | 0.000252 | 686000 | – | – |
